Laboratory results from patent US20100255011A1 (University of Washington, published 2010).

T1: CD46 on the surface of human cells (HeLa, Raji, PBMC and others) (human, UniProt P15529 35-376)
T1 sequence: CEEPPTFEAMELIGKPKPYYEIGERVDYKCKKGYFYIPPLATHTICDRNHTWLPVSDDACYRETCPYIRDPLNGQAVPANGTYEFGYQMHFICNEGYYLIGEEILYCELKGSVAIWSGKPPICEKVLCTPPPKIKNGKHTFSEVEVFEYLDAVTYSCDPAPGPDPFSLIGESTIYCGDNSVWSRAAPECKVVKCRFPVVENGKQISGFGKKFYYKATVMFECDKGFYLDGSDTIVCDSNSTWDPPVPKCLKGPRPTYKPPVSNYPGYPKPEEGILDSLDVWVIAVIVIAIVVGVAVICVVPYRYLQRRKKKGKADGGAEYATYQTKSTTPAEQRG

T2: soluble recombinant CD46 (sCD46) (human, UniProt P15529 35-343)
T2 construct: Soluble form produced as described in Wang et al. 2007; also called soluble CD46
T2 sequence: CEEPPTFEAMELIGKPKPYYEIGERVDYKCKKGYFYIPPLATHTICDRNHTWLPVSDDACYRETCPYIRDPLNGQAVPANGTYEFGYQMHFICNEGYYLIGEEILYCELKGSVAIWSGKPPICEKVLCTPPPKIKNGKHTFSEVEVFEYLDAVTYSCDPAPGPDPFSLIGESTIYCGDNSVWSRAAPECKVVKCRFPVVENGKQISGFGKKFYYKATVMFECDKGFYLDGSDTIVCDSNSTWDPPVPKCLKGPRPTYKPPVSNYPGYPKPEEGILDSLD


How the values were obtained:
[1] = biological target: soluble recombinant CD46 (sCD46) (human) (UniProt P15529); assay: SPR, Biacore T100; biotinylated knob on streptavidin chip, sCD46 injected
[2] = biological target: soluble recombinant CD46 (sCD46) (human) (UniProt P15529); assay: SPR, ratio of KDs
[3] = biological target: CD46 on the surface of human cells (HeLa, Raji, PBMC and others) (human) (UniProt P15529); assay: cell-based or functional assay
[4] = biological target: T1, CD46 on the surface of human cells …; assay: cell-based or functional assay
[5] = biological target: T2, soluble recombinant CD46 (sCD46); assay: SPR, Biacore T100; biotinylated knob on streptavidin chip, sCD46 injected
[6] = biological target: T2, soluble recombinant CD46 (sCD46); assay: SPR, ratio of KDs

Row | Molecule | Kd [1] [nM] | koff [1] [s⁻¹] | kon [1] [M⁻¹ s⁻¹] | fold higher affinity than the wild-type fiber knob protein [2] [fold] | further results
1 | Ad35 fiber knob mutant Asn217Asp + Thr245Pro + Ile256Leu | 4.82 | 0.0097 | 2.25e+06 |  | 
2 | Ad35 fiber knob mutant Asp207Gly | 1.77 | 0.0034 | 3.51e+06 | 8.3 | 
3 | Ad35 fiber knob mutant Asp207Gly + Thr226Ala | 1.41 | 0.0026 | 1.97e+06 |  | 
4 | Ad35 fiber knob mutant Asp207Gly + Thr245Ala + Ile256Leu | 0.92 | 0.0018 | 1.96e+06 |  | 
5 | Ad35 fiber knob mutant Ile256Leu | 11 | 0.0236 | 2.13e+06 | 1.3 | 
6 | Ad35 fiber knob mutant Thr245Ala | 7.64 | 0.0173 | 2.25e+06 | 1.9 | 
7 | mouse anti-human CD46 antibody, clone MEM-258 (AbD Serotec) |  |  |  |  | level of CD46 on the surface of HeLa cells (flow cytometry), decline [3]: 30%; viability of Raji cells with NHS (alone or with daclizumab), decline [3]: 30%
8 | wild-type Ad35 fiber knob protein (other, Recombinant, made in E. coli, homotrimer; Biotinylated (EZ-Link Sulfo-NHS-LC-Biotin) for SPR; also called Ad35K; wild-type Ad35K) HHHHHHGDICIKDSINTLWTGINPPPNCQIVENTNTNDGKLTLVLVKNGGLVNGYVSLVGVSDTVNQMFTQKTANIQLRLYFDSSGNLLTDESDLKIPLKNKSSTATSETVASSKAFMPSTTAYPFNTTTRDSENYIHGICYYMTSYDRSLFPLNISIMLNSRMISSNVAYAIQFEWNLNASESPESNIATLTTSPFFFSYITEDDN |  |  |  |  | killing of Raji cells by rituximab/NHS, increase against rituximab/NHS only [4]: ~2 fold; Kd [5]: 14.6 nM; koff [5]: 0.0234 s⁻¹; kon [5]: 1.52e+06 M⁻¹ s⁻¹
9 | mutant Ad35 fiber knob protein with Asp207Gly and Thr245Ala substitutions (Ad35K++) (other, Recombinant, E. coli, spontaneously forms trimers; Biotinylated for SPR; also called Asp207Gly + Thr245Ala; Ad35K++ polypeptide) HHHHHHGDICIKDSINTLWTGINPPPNCQIVENTNTNDGKLTLVLVKNGGLVNGYVSLVGVSDTVNQMFTQKTANIQLRLYFDSSGNLLTGESDLKIPLKNKSSTATSETVASSKAFMPSTTAYPFNTATRDSENYIHGICYYMTSYDRSLFPLNISIMLNSRMISSNVAYAIQFEWNLNASESPESNIATLTTSPFFFSYITEDDN |  |  |  |  | fold higher affinity than the wild-type Ad35 [6]: 23.2 fold; decrease of mean CD46 fluorescence intensity on PBMCs [4]: 1.97 fold; decrease of mean CD46 fluorescence intensity on Raji cells [4]: 7.54 fold; fold decrease in GFP expression after Ad35-GFP infection of HeLa cells pre-incubated 72 hours earlier, against Ad35K-279 [4]: 1000 fold; killing of Raji cells by rituximab/NHS, increase against rituximab/NHS only [4]: ~10 fold; Kd [5]: 0.63 nM; koff [5]: 0.0017 s⁻¹; kon [5]: 2.48e+06 M⁻¹ s⁻¹
